Data reported in publication PMC9274004, “Deciphering the Molecular Interaction Between the Adhesion G Protein-Coupled Receptor ADGRV1 and its PDZ-Containing Regulator PDZD7” (Frontiers in Molecular Biosciences, 2022).
Entries after “also recorded” stand apart in the source; their conditions may differ.

Experiments:
ADGRV1 = details: cellular models, PDZ-PBM dependent; ref Hu et al., 2014; cited from earlier work
From the text: Cochlear hair cells are the primary receptors for the detection of sound-induced vibrations. […] The shape of the bundle is critical for the cohesive deflection of the stereocilia necessary for the cell function. Morphogenesis of the hair bundle is regulated during cochlear development, but the underlying signaling pathways remain elusive. The ankle link protein complex, transiently expressed at the base of the stereocilia, is the main candidate for regulating bundle morphogenesis, with pathogenic varia ... || PDZD7 and ADGRV1 are the main candidate proteins for regulating the signaling associated with the Usher2 complex. PDZD7 is primarily a scaffolding protein, with several protein-protein interaction domains (three PDZ domains and one HHD) likely recruiting several partners at the ankle links anchoring sites ([Du et al., 2018]).

ADGRV1 β subunit = assay: Pull-down of ADGRV1 β subunit by full-length PDZD7-GFP from HeLa cell lysates; type: binding, murine; details: PDZD7-GFP bait, anti-GFP beads, 4°C 1 h, western blot, vs no bait
Protocol: HeLa cells were maintained in Dulbecco’s modified Eagle’s medium (DMEM) containing 10% fetal calf serum (FCS). PDZD7 constructs correspond to the full-length murine sequence in fusion with a N-terminal strep tag and a C-terminal GFP, wild-type or carrying G103R/G228R variants, cloned in a PMT3 vector. The ADGRV1 construct corresponds to the murine β subunit of the receptor (5884-6298) cloned in a pRK5 vector. Plasmids were transfected in separate HeLa cultures using 25 μg (PDZD7) and 10 μg (ADGRV1) of DNA per 10 cm dish using TurboFect™ Transfection Reagent (ThermoFisher Scientific) at 3 μl per μg of transfected DNA. Mixes were prepared in volumes of 1 ml/plate (in DMEM), vortexed and incubated up to 30 min at room temperature, cell media were renewed before transfection. After drop by drop addition of the transfection mix, cells were maintained at 37°C for 14 h for protein expression. Cells were dissociated using Gibco™ Trypsine-EDTA (0,05%), subsequently inactivated by addition of DMEM containing 10% FCS. Cells were counted, pelleted and resuspended at similar concentrations in PBS Tween 0.01%, Dodécyl-β-D-maltoside (DDM) 0.1% containing anti-proteases (buffer). Benzonase (Sigma) was added before sonication of the cells (40 mA amplitude, 10 pulses of 12 s with 18 s intervals, in ice). An identical volume of ADGRV1 β transfected cell lysate was mixed to either PDZD7 WT, G103R or G228R transfected cell lysates. PDZ proteins have different expression levels, meaning that different amounts of sample are needed to saturate the dynabeads with the PDZ proteins. Pull down experiments have been performed several times allowing us to estimate the yield of expression of each PDZ construct for a given amount of cells. […] Target proteins were detected using mouse α-GFP (LivingColors™ JL-8, Takara) and rabbit α-ADGRV1 (custom, raised against the cytoplasmic domain) antibodies (1/2000 in 5% milk TBST), as well as secondary α-mouse and α-rabbit IgG antibodies coupled to HRP (1/2000 in 5% milk TBST). […]

PDZD7 PDZ2ext WT = assay: nanoDSF thermostability of PDZ2ext WT in complex; type: binding, murine; details: MES pH6 (50 mM), PDZ2ext WT + ADGRV1pbm 756 μM, unbound Tm 38.5°C
Protocol: (§1) NanoDSF experiments were performed on a Prometheus (Nanotemper) spectrometer using Prometheus NT.48 Series nanoDSF Grade High Sensitivity Capillaries. All samples were prepared in MES pH6 (50 mM) at micromolar concentrations. For the complexes, ADGRV1pbm peptide was added at a final concentration of 756 μM, diluting the samples by 5%.

[1] = Aggregation / sample stability of purified PDZ2 constructs; type: physicochemical
From the text: The biochemical behavior of PDZD7 PDZ2 drastically differs from PDZ1, with or without its C-terminal extension. […] In order to further establish the accessible folding states of the PDZ2 extension, we used the same metadynamics approach as for PDZ1ext and probed its conformational energy landscape (Figure 3C).

[2] = nanoDSF thermostability of unbound PDZD7 constructs; type: physicochemical; details: MES pH6 (50 mM), micromolar concentrations, without ligand
Protocol: as §1

PDZD7 P1P2 WT = assay: nanoDSF thermostability of P1P2 WT in complex; type: binding, murine; details: MES pH6 (50 mM), P1P2 WT + ADGRV1pbm 756 μM, unbound Tm 41°C
Protocol: as §1

[3] = SAXS geometrical parameters of unbound PDZ tandem; type: physicochemical; details: without ligand, Phosphate Buffer 50 mM pH 6.5, NaCl 300 mM, TCEP 0.5 mM
Protocol: X-ray scattering data were collected at the SWING beamline at Soleil Synchrotron (Saclay, France). 50 μl of sample are injected on a Superdex-75 5/150 GL size exclusion column in-line with the SAXS measuring cell. PDZD7 samples are prepared in the same buffer (Phosphate Buffer 50 mM pH 6.5, NaCl 300 mM, TCEP 0.5 mM, anti-proteases). The experiment is performed at initial concentrations of 119 μM (3.1 mg/ml) for P1P2 WT and 108 μM (2.8 mg/ml) for P1P2 G103R. For complexes, 2 μl of pH-adjusted ADGRV1pbm peptide (VELRRIPIADTHL-COOH; 13,7 mM) are added to the 50 μl from the sample 1 hour before recording. Initial data processing was performed using sxCuBE, FOXTROT and PRIMUS. The radii of gyration were evaluated using Guinier approximation. The Dmax was determined from the distance distribution function P(r) obtained with the program GNOM.

[4] = Analytical UltraCentrifugation of unbound P1P2; type: physicochemical; details: AUC, 10°C, P1P2 0.4 mg/ml, Phosphate Buffer pH 6.5 (50 mM)
Protocol: AUC experiments were performed at 10°C using an analytical Beckman Coulter Optima ultracentrifuge equipped with a AN50-Ti rotor. The P1P2 sample was prepared at 0.4 mg/ml in Phosphate Buffer pH 6.5 (50 mM). For the complex, 10 μl of pH-adjusted ADGRV1pbm peptide (13,7 mM) were added to 300 μl of P1P2 sample. Interference profiles were analyzed with SEDFIT.

PDZD7 PDZ1ext WT = assay: nanoDSF thermostability of PDZ1ext WT in complex; type: binding, murine; details: MES pH6 (50 mM), PDZ1ext WT + ADGRV1pbm 756 μM, unbound Tm 61.6°C
Protocol: as §1

B1: WT PDZD7: full-length murine PDZD7 in fusion with N-terminal strep tag and C-terminal GFP (pull-down) (protein)
chain: MARGFTVGFDPLGLGELSSGSLSSVSSRGHLGSDSGSTATRYLLRKQQRLLNGPSRGIRASSPMGRVILINSPIEANSDESDIIHAVRVEKSPSGRLGFSVRGGSEHGLGIFVSKVEEGSSAERAGLCVGDKITEVNGLSLESTTMGSAVRLLTSSSCLHMMVRRMGRVPGIKFSKEKTTWVDVVNRRLVVEKCSSTPSDRSSEDGVRRIVHLYTTSDDFCLGFNIRGGKEFGLGIYVSKVDHGGLAEENGIKVGDQVLAANGVRFDDISHSQAVEVLKGQTHIMLTIKETGRYPAYKEMVSEYCWLDRLSNGVLQQLSPASESSSSVSSYASSAPCSSGSLPSDRMDVCLGPEEPTSHGPGWGRADTAMQTEPDLDSRVETWCSVRPTVILRDTAIRSDGPSSTRHLDSALSESPKTALLLALSRPRTPITRSQSHLTLWEEKKQRKKEKSGSSGEKGALQRSKTLMNLFFKGGRQGRPAGDGHREAWTLDSRSPTKVRPRLDLEKAGSVGPVQKFVTWRLRRDRERGRALLSARSGSPSGQAPTVNEQVQAWESRRPLIQDLARRLLTDDEVLAVTRHCSRYVHEGGVEDLVRPLLAILDRPTKLLLLRDIRSVVAPTDLGRFDSMVMPVELEAFEALKSRAVGPSALRPTRQDTPPKRHLITPVPDSRGGFYLLPVNSSEDEDGEIREKLGVLKVSLGASAPHHKGIPPLQDVPVDAFSLRRGACAPPPQPPPVAPRPPRPNWLLTEPLSREDTQQNQSQTPAQSCSRSRSRSRSRSHSRGQGKSPGRRRSPSPAPIATAATANGRYHRPRKARPLLPRLLDGQVAKVGARQGPLENGRIAEEAVGNVSTGALRTITLSKMKQSLGISISGGIESKVQPMVKIEKIFPGGAAFLCGDLQAGFELVAVDGESLEQVTHQRAVDTIRRAYRNKAREPMELVVRVPGPGLLPLASDLRVVKDQSLAPDCPSALGPVDDARILTQLPPPEARQLQQSLSSALKVPQSIPKLSPILKDPHDPS
modifications: left off: strep tag, N-terminal, kept | GFP, C-terminal, kept
- effect on ADGRV1 GPCR activity (ADGRV1): downregulates the GPCR activity and restores cAMP levels; also recorded: downregulates ADGRV1 GPCR activity
- binding of ADGRV1 β subunit (pull-down) (ADGRV1 β subunit): a clear band is observed

B2: PDZ2ext WT: second PDZ of mouse PDZD7 with its C-terminal extension (G206 to G313) (protein)
chain: GVRRIVHLYTTSDDFCLGFNIRGGKEFGLGIYVSKVDHGGLAEENGIKVGDQVLAANGVRFDDISHSQAVEVLKGQTHIMLTIKETGRYPAYKEMVSEYCWLDRLSNG
modifications: left off: GST, N-terminal, cleaved
- Tm (Bound) (PDZD7 PDZ2ext WT): 47.2 °C
- sample stability ([1]; 15N-labelled PDZ2 constructs, NMR): stable for a few hours only
- aggregation ([1]; at temperatures higher than 15 °C, despite extensive screening of buffer conditions): Rapid aggregation
- Tm (Unbound) [2]: 38.5 °C

B3: P1P2 WT: PDZD7 PDZ tandem (P1P2 construct; A81 to G313) (protein, UniProt E9Q9W7 81-313, looked up, fragment)
chain: SDIIHAVRVEKSPSGRLGFSVRGGSEHGLGIFVSKVEEGSSAERAGLCVGDKITEVNGLSLESTTMGSAVRLLTSSSCLHMMVRRMGRVPGIKFSKEKTTWVDVVNRRLVVEKCSSTPSDRSSEDGVRRIVHLYTTSDDFCLGFNIRGGKEFGLGIYVSKVDHGGLAEENGIKVGDQVLAANGVRFDDISHSQAVEVLKGQTHIMLTIKETGRYPAYKEMVSEYCWLDRLSNG
- Tm (Bound) (PDZD7 P1P2 WT): 57.2 °C
- radius of gyration (Rg) ([3]; Guinier approximation): 27.8 Å
- interatomic maximum distance (Dmax) ([3]; P(r) with GNOM): 109.5 Å
- sedimentation coefficient [4]: 1.6 Svedberg (S)
- Tm (Unbound) [2]: 41 °C

B4: PDZ1ext WT: first PDZ of mouse PDZD7 with its C-terminal extension (A81 to E192) (protein, UniProt E9Q9W7 81-192, looked up, fragment)
chain: SDIIHAVRVEKSPSGRLGFSVRGGSEHGLGIFVSKVEEGSSAERAGLCVGDKITEVNGLSLESTTMGSAVRLLTSSSCLHMMVRRMGRVPGIKFSKEKTTWVDVVNRRLVVE
- Tm (Bound) (PDZD7 PDZ1ext WT): 61.8 °C
- Tm (Unbound) [2]: 61.6 °C
